The target of one experiment is T1, GST-Smad4, Q13485.
T1 chain: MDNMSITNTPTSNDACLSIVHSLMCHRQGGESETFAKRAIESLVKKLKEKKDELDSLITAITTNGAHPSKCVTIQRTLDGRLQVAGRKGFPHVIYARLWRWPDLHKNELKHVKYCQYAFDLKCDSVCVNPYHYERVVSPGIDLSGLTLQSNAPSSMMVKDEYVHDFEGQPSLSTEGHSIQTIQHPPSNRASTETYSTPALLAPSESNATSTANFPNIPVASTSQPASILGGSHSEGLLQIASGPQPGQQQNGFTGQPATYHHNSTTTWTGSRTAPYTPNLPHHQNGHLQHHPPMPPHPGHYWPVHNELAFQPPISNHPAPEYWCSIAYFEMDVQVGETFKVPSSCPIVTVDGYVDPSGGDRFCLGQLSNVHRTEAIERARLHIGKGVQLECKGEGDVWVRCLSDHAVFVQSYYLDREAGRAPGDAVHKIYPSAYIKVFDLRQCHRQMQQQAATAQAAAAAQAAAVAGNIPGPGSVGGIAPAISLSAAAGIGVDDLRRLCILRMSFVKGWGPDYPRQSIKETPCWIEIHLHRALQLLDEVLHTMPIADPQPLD
Briefly: GST pull-down, immunoblot band quantification. Particulars: chain shown with the change; HEK293T cell lysate; n=3; read off a plot. A general note: Immunoblotting shows a protein as a band on a membrane.

A further experiment has as its target T2, GST-Smad4-MH2, Q13485.
T2 chain: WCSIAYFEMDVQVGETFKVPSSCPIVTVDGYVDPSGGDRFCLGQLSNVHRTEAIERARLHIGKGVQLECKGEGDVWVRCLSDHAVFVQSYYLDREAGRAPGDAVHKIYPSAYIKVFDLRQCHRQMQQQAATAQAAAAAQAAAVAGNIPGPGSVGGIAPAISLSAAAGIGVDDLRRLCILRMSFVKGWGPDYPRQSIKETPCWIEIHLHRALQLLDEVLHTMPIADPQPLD
Briefly: GST pull-down, immunoblot band quantification. Particulars: chain shown with the change; HEK293T cell lysate; n=3; read off a plot.

B1: Arl15-WT-GFP A86L (protein)
chain: MSDLRITEAFLYMDYLCFRALCCKGPPPARPEYDLVCIGLTGSGKTSLLSKLCSESPDNVVSTTGFSIKAVPFQNAILNVKELGGLDNIRKYWSRYYQGSQGVIFVLDSASSEDDLEAARNELHSALQHPQLCTLPFLILANHQDKPAARSVQEIKKYFELEPLARGKRWILQPCSLDDMDALKDSFSQLINLLEEKDHEAVRM
On to B1, for which the other: relative amount of Arl15-AL-GFP pulled down was determined as 1 with GST-Smad4, Q13485 and 0.55 with GST-Smad4-MH2, Q13485.
